Measurements as given in US20130331690A1, “VASCULAR IMAGING AGENTS” (GE HEALTHCARE AS, priority 2010, published 2013).

Columns and labels:
[1] = of the fluorescence efficiency of fluorescein; cited from earlier work
MatBIII tumour model = experiment: In vivo fluorescence imaging in the rat MatBIII tumour model; details: fluorescence image 1 hour after iv injection, FIG. 2
Description: (§1) In vivo studies were carried out with female Fischer 344 rats or severe combined immunodeficient (SCID) mice, each with an age between 4 and 8 weeks. Animals were housed with non-fluorescent food (Harlan Labs, cat. #TD.97184) and water ad libitum and a standard 12 hour day-night lighting cycle. 1×10^6 cells (100 μL) were injected, using a 27 gauge needle, directly orthotopically into the mammary fat pad of the animal. After allowing 7 days for MatBIII tumor growth (˜1 cm in diameter), animals were injected with test agent and imaged.
Compound 1 was studied in the MatBIII model described in Example 3. The dose was either 125 or 250 nmol dye/kg body weight. The fluorescence imaging system was comprised of a 12 bit cooled CCD camera (Hamamatsu ORCA), and with a 735 laser source providing the excitation light. The fluorescence signal was filtered with a band pass emission filter set (810 nm centre frequency, 90 nm bandwidth). 50 ms exposure time was used with 2×2 binning.
For immobilisation during the optical imaging procedure, the animals were anaesthetized in a coaxial open mask to surgical level anaesthesia with Isoflurane (typically 2-3%) with oxygen as the carrier gas. During injection and intermediate time point imaging a lighter anaesthesia level was used. The animals were imaged from above, lying on their backs. […]

[2] = Optical biodistribution (ADME profile) in MatBIII orthotopic tumor model; assay type: in vivo, rat; details: for Biodistribution, Bladder / Biodistribution, Blood / Biodistribution, Eye / Biodistribution, Kidney / Biodistribution, Liver / Biodistribution, Skin / Biodistribution, Spleen / Biodistribution, Tumor: MatBIII tumor-bearing rats, 125 nmol/kg
Description: as §1
The ADME profile of Compound 1 was studied by performing optical biodistribution studies in the MatB III in vivo orthotopic tumor model. Thus, a dose of 125 nmol/kg (volume ˜250-300 μL) was used for the study with an equal volume of PBS used as a negative control. For naïve animals, each tissue type was split into four tubes to ensure sufficient volume for standard preparation. Tissues included blood, bladder/urine, liver, kidney, spleen, eyes, fat, muscle, tumor, and skin collected from the contralateral side from tumor. Using the supernatant from naïve samples (pooled by tissue type), standards were made by adding agent at concentrations of 75 μM, 37.5 μM, 3.75 μM, 0.375 μM and 0 μM, dilutions made with PBS. This yielded a final concentration of 20% injected dose (ID), 10%, 1%, […] and 0. To determine the amount of dye contained in each tissue type, 90 μL of sample or standard was read on a spectrophotometer at settings of 710 excitation/805 Emission.
Samples were adjusted for weight, but there was some sample-to-sample variation.

[3] = Blood clearance vs time, bi-phasic exponential decay curve fit; assay type: in vivo, rat; details: rats

CC1(C)C(/C=C/C=C/C=C/C=C2\N(CCCCS(=O)(=O)O)c3ccc4ccccc4c3C2(C)C)=[N+](CCCCS(=O)(=O)[O-])c2ccc3ccccc3c21 [ICG, indocyanine green]
Fluorescence efficiency relative to fluorescein [1]: 4%

Bis-Cy7 PEG-31k Conjugate [Compound 1]
Image contrast of blood vessels and blood-rich tumour (MatBIII tumour model): positive image contrast | Retention of the agent in all of the collected tissues ([2]; 48 h post injection): < 1 % ID/g | Biodistribution, Bladder ([2]; 2 min): 0.00 % ID/g | Biodistribution, Blood ([2]; 2 min): 6.56 % ID/g | Biodistribution, Eye ([2]; 2 min): 1.93 % ID/g | Biodistribution, Kidney ([2]; 2 min): 0.12 % ID/g | Biodistribution, Liver ([2]; 2 min): 0.24 % ID/g | Biodistribution, Skin ([2]; 2 min): 0.00 % ID/g | Biodistribution, Spleen ([2]; 2 min): 0.64 % ID/g | Biodistribution, Tumor ([2]; 2 min): 0.00 % ID/g | Biodistribution, Bladder ([2]; 5 min): 0.23 % ID/g | Biodistribution, Blood ([2]; 5 min): 5.65 % ID/g | Biodistribution, Eye ([2]; 5 min): 0.14 % ID/g | Biodistribution, Kidney ([2]; 5 min): 1.35 % ID/g | Biodistribution, Liver ([2]; 5 min): 0.46 % ID/g | Biodistribution, Skin ([2]; 5 min): 0.56 % ID/g | Biodistribution, Spleen ([2]; 5 min): 0.64 % ID/g | Biodistribution, Tumor ([2]; 5 min): 0.53 % ID/g | Biodistribution, Bladder ([2]; 10 min): 1.24 % ID/g | Biodistribution, Blood ([2]; 10 min): 4.26 % ID/g | Biodistribution, Eye ([2]; 10 min): 1.70 % ID/g | Biodistribution, Kidney ([2]; 10 min): 0.41 % ID/g | Biodistribution, Liver ([2]; 10 min): 0.03 % ID/g | Biodistribution, Skin ([2]; 10 min): 0.00 % ID/g | Biodistribution, Spleen ([2]; 10 min): 1.00 % ID/g | Biodistribution, Tumor ([2]; 10 min): 0.00 % ID/g | Biodistribution, Bladder ([2]; 60 min): 0.86 % ID/g | Biodistribution, Blood ([2]; 60 min): 3.05 % ID/g | Biodistribution, Eye ([2]; 60 min): 0.33 % ID/g | Biodistribution, Kidney ([2]; 60 min): 0.51 % ID/g | Biodistribution, Liver ([2]; 60 min): 1.02 % ID/g | Biodistribution, Skin ([2]; 60 min): 0.05 % ID/g | Biodistribution, Spleen ([2]; 60 min): 0.28 % ID/g | Biodistribution, Tumor ([2]; 60 min): 0.00 % ID/g | Biodistribution, Bladder ([2]; 180 min): 0.00 % ID/g | Biodistribution, Blood ([2]; 180 min): 2.19 % ID/g | Biodistribution, Eye ([2]; 180 min): 0.12 % ID/g | Biodistribution, Kidney ([2]; 180 min): 0.63 % ID/g | Biodistribution, Liver ([2]; 180 min): 2.04 % ID/g | Biodistribution, Skin ([2]; 180 min): 0.06 % ID/g | Biodistribution, Spleen ([2]; 180 min): 0.32 % ID/g | Biodistribution, Tumor ([2]; 180 min): 0.05 % ID/g | Biodistribution, Bladder ([2]; 2880 min): 0.00 % ID/g | Biodistribution, Blood ([2]; 2880 min): 0.02 % ID/g | Biodistribution, Eye ([2]; 2880 min): 0.44 % ID/g | Biodistribution, Kidney ([2]; 2880 min): 0.00 % ID/g | Biodistribution, Liver ([2]; 2880 min): 0.23 % ID/g | Biodistribution, Skin ([2]; 2880 min): 0.00 % ID/g | Biodistribution, Spleen ([2]; 2880 min): 0.00 % ID/g | Biodistribution, Tumor ([2]; 2880 min): 0.61 % ID/g | Blood half-life t1/2α [3]: 4.6 min | Blood half-life t1/2β [3]: 4.33 h
